The target of experiment [1] is ErbB2/4 full-length ectodomain-Fc heterodimer (human) (UniProt P04626). The experiment in a line: displacement of Eu-BTC by unlabelled HRGβ from ErbB2/4 ectodomain-Fc captured on protein G.
The target in experiment [2] is ErbB4 497.Fc (truncated ErbB4 ectodomain-Fc fusion protein homodimer) (human) (UniProt Q15303). The experiment in a line: summary of the Eu-ligand displacement assays (ErbB4 fragment, HRGβ).
Experiment [3] has as its target ErbB3 500.Fc (truncated ErbB3 ectodomain-Fc fusion protein homodimer) (human) (UniProt P21860). The experiment in a line: displacement of Eu-HRGβ by unlabelled HRGβ from ErbB3 500.Fc captured on protein G.
The target of experiment [4] is ErbB4 497.Fc (truncated ErbB4 ectodomain-Fc fusion protein homodimer) (human) (UniProt Q15303). Put plainly: displacement of Eu-HRGβ by unlabelled HRGβ from ErbB4 497.Fc captured on protein G.
Experiment [5] concerns the target full-length ErbB4 ectodomain-Fc fusion homodimer (human) (UniProt Q15303). The experiment in a line: displacement of Eu-BTC by unlabelled HRGβ from ErbB4 ectodomain-Fc captured on protein G.
The target of experiment [6] is ErbB3 500.Fc (truncated ErbB3 ectodomain-Fc fusion protein homodimer) (human) (UniProt P21860). Put plainly: summary of the Eu-ligand displacement assays (ErbB3 fragment, HRGβ).
Sequence of ErbB3 500.Fc (truncated ErbB3 ectodomain-Fc fusion protein homodimer) (human) (P21860 20-500, form in doubt): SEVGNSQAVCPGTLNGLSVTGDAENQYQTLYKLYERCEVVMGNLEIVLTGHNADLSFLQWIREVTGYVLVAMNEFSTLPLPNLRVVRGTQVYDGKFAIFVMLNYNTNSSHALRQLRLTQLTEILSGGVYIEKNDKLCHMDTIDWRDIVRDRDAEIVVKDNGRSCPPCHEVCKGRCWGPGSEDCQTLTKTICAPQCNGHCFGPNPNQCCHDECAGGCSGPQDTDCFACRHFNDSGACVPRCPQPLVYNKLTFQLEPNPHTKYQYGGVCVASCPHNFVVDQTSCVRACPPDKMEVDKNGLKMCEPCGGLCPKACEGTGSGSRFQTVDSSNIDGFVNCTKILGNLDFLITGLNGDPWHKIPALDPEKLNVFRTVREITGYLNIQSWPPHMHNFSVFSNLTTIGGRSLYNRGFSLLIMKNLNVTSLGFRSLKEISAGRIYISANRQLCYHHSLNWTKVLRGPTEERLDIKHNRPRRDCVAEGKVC

Sequence of ErbB4 497.Fc (truncated ErbB4 ectodomain-Fc fusion protein homodimer) (human) (Q15303 26-497, form in doubt): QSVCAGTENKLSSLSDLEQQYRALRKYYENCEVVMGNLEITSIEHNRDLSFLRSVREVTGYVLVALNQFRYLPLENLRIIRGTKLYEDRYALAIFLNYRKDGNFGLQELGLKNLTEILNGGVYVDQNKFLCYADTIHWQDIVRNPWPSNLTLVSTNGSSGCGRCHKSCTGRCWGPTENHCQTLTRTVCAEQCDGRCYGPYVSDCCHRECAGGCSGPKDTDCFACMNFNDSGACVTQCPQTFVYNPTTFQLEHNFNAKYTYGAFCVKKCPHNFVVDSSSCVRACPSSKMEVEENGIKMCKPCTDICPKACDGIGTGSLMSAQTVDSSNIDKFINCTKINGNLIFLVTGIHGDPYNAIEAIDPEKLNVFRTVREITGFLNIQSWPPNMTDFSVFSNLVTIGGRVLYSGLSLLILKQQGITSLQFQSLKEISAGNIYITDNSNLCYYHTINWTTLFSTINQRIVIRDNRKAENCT
Sequence of full-length ErbB4 ectodomain-Fc fusion homodimer (human) (Q15303 26-651): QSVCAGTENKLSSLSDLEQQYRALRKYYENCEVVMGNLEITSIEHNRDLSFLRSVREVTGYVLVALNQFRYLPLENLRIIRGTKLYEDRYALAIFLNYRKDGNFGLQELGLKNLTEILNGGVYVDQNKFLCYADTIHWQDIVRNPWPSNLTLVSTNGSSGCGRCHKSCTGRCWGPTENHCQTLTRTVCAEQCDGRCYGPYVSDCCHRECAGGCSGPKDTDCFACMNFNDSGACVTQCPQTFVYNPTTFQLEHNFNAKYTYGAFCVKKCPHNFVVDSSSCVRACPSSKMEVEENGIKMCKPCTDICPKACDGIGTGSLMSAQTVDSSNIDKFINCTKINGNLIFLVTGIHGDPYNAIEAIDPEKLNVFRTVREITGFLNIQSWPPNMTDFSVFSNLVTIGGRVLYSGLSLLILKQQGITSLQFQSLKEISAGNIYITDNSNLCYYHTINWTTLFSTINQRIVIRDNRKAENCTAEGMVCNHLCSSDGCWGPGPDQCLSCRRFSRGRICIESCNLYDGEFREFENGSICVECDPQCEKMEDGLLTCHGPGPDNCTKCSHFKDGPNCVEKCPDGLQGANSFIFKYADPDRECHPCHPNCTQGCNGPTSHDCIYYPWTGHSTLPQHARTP

In experiment [1], β-heregulin (HRGβ, Sigma) (ligand) gave a change of the IC50 against the ErbB4 ectodomain-Fc homodimer of 100 fold. For the same substance, the affinity in experiment [2] and in experiment [6] was less than 1 nM in each case. For the same substance, the half-inhibitory concentration (IC50) in experiment [3] is 0.49 nM; in experiment [4] it was 0.057 nM; in experiment [5], 18 nM.

As a reminder, the IC50 is the midpoint of a concentration-inhibition curve. Read a high IC50 as weaker potency in that assay.
